Source: US20120171195A1

Tests used:
HLA-A*2402 (A24) (human) = HLA-A*2402 (A24) (human) (UniProt P04439); experiment: Luminex single-antigen beads; MEM-E/02 1/600; serum Mi59 1/100
HLA-A*2403 (A24) (human) = experiment: as above
HLA-A*2601 (A26) (human) = experiment: as above
HLA-A*3201 (A32) (human) = experiment: as above
HLA-A*3301 (A33) (human) = experiment: as above
HLA-B*0801 (B8) (human) = HLA-B*0801 (B8) (human) (UniProt P01889); experiment: as above
HLA-B*1301 (B13) (human) = experiment: as above
HLA-B*2708 (B27) (human) = HLA-B*2708 (B27) (human) (UniProt P01889); experiment: as above
HLA-B*4403 (B44) (human) = experiment: as above
HLA-B*4501 (B45) (human) = experiment: as above
HLA-B*5001 (B50) (human) = experiment: as above
HLA-B*5301 (B53) (human) = experiment: as above
HLA-B*5401 (B54) (human) = HLA-B*5401 (B54) (human) (UniProt P01889); experiment: as above
HLA-B*6701 (B67) (human) = HLA-B*6701 (B67) (human) (UniProt P01889); experiment: as above
HLA-Cw*0304 (human) [1] = experiment: as above
[2] = molecular target: HLA-Cw*0801 (Cw8) (human) (UniProt P10321); experiment: as above
[3] = molecular target: HLA-Cw*1701 (Cw17) (human); experiment: as above
HLA-B*1401 (human) = HLA-B*1401 (human) (UniProt P01889); experiment: Luminex beads; MAb 1/200; competitor IgG-free serum
HLA-B*4006 (human) = HLA-B*4006 (human) (UniProt P01889); experiment: as above
HLA-B*5201 (human) [4] = experiment: as above
HLA-B*5801 (human) [5] = experiment: as above
HLA-Cw*0304 (human) [6] = experiment: as above
HLA-Cw*0501 (human) = experiment: as above
HLA-Cw*0602 (human) = HLA-Cw*0602 (human) (UniProt P10321); experiment: as above
HLA-Cw*1701 (human) [7] = experiment: as above
HLA-Cw*1802 (human) [8] = molecular target: HLA-Cw*1802 (human) (UniProt P10321); experiment: as above
HLA-B*0801 (human) = HLA-B*0801 (human) (UniProt P01889); experiment: Luminex beads; MAb 1/800; competitor IgG-free serum
HLA-B*1402 (human) = experiment: as above
HLA-B*1801 (human) = experiment: as above
HLA-B*2708 (human) = HLA-B*2708 (human) (UniProt P01889); experiment: as above
HLA-B*3701 (human) = experiment: as above
HLA-B*4002 (human) = HLA-B*4002 (human) (UniProt P01889); experiment: as above
HLA-B*5101 (human) = experiment: as above
HLA-B*5201 (human) [9] = experiment: as above
HLA-B*5801 (human) [10] = experiment: as above
HLA-Cw*1402 (human) = HLA-Cw*1402 (human) (UniProt P10321); experiment: as above
HLA-Cw*1701 (human) [11] = experiment: as above
HLA-Cw*1802 (human) [12] = molecular target: HLA-Cw*1802 (human) (UniProt P10321); experiment: as above
HLA-B*1511 (human) = HLA-B*1511 (human) (UniProt P01889); experiment: Luminex beads; MAb 1/1600; competitor IgG-free serum
HLA-B*4402 (human) = experiment: as above
HLA-B*4801 (human) = HLA-B*4801 (human) (UniProt P01889); experiment: as above
HLA-Cw*0303 (human) = experiment: as above

## murine monoclonal antibody MAb MEM-E/02
HLA-A*2402 (A24) (human)
  MFI: < 500 MFI
HLA-A*2403 (A24) (human)
  MFI: < 500 MFI
HLA-A*2601 (A26) (human)
  MFI: < 500 MFI
HLA-A*3201 (A32) (human)
  MFI: < 500 MFI
HLA-A*3301 (A33) (human)
  MFI: < 500 MFI
HLA-B*0801 (B8) (human)
  MFI: < 500 MFI
HLA-B*1301 (B13) (human)
  MFI: < 500 MFI
HLA-B*2708 (B27) (human)
  MFI: < 500 MFI
HLA-B*4403 (B44) (human)
  MFI: < 500 MFI
HLA-B*4501 (B45) (human)
  MFI: < 500 MFI
HLA-B*5001 (B50) (human)
  MFI: < 500 MFI
HLA-B*5301 (B53) (human)
  MFI: < 500 MFI
HLA-B*5401 (B54) (human)
  MFI: < 500 MFI
HLA-B*6701 (B67) (human)
  MFI: < 500 MFI
HLA-Cw*0304 (human) [1]
  MFI: 557 MFI
[2]
  MFI: < 500 MFI
[3]
  MFI: < 500 MFI

## murine monoclonal antibody (MAb) MEM-E/02
HLA-B*1401 (human)
  MFI: 5370 MFI
HLA-B*4006 (human)
  MFI: 7410 MFI
HLA-B*5201 (human) [4]
  MFI: 2020 MFI
HLA-B*5801 (human) [5]
  MFI: 3420 MFI
HLA-Cw*0304 (human) [6]
  MFI: 2030 MFI
HLA-Cw*0501 (human)
  MFI: 6260 MFI
HLA-Cw*0602 (human)
  MFI: 2190 MFI
HLA-Cw*1701 (human) [7]
  MFI: 1930 MFI
HLA-Cw*1802 (human) [8]
  MFI: 8810 MFI
HLA-B*0801 (human)
  MFI: 262 MFI
HLA-B*1402 (human)
  MFI: 517 MFI
HLA-B*1801 (human)
  MFI: 777 MFI
HLA-B*2708 (human)
  MFI: 417 MFI
HLA-B*3701 (human)
  MFI: 784 MFI
HLA-B*4002 (human)
  MFI: 655 MFI
HLA-B*5101 (human)
  MFI: 483 MFI
HLA-B*5201 (human) [9]
  MFI: 609 MFI
HLA-B*5801 (human) [10]
  MFI: 938 MFI
HLA-Cw*1402 (human)
  MFI: 803 MFI
HLA-Cw*1701 (human) [11]
  MFI: 676 MFI
HLA-Cw*1802 (human) [12]
  MFI: 3810 MFI
HLA-B*1511 (human)
  MFI: 388 MFI
HLA-B*4402 (human)
  MFI: 248 MFI
HLA-B*4801 (human)
  MFI: 412 MFI
HLA-Cw*0303 (human)
  MFI: 332 MFI
